# According to US6995141B1, “Interleukin 1β protease and interleukin 1β protease inhibitors” (Vertex Pharmaceuticals Incorporated, priority 1990, dated 2006):
# Non-standard residues stand in square brackets, D forms with d.
# T1: IL-1β pro (Homo sapiens, UniProt P29466)
# T1 construct: beginning with amino acid 120; Based upon a molecular weight analysis, the approximate C-terminus of mature IL-1β pro is about amino acid 297
# T1 sequence (P29466 120-297): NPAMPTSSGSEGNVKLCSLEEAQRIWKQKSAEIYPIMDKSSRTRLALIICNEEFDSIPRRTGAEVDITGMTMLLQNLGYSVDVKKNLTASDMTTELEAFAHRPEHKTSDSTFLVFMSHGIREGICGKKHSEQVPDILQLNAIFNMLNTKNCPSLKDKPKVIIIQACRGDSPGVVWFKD
# T1 sequence (P29466 317-404): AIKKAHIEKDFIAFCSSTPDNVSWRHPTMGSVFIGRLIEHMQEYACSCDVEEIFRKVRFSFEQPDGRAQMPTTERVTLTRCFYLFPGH
# T2: protease that generates mature IL-1β from the precursor polypeptide (Homo sapiens, UniProt P29466)
# T2 construct: host or cells: partially purified (about 500-fold) from THP-1 cell lysates, per Black et al., FEBS Lett. 247:386-90 (1989)
# T2 sequence (P29466 120-297 limits assumed): T1 sequence (P29466 120-297)
# T2 sequence (P29466 317-404 limits assumed): T1 sequence (P29466 317-404)
# T3: purified human IL-1β pro enzyme (Homo sapiens, UniProt P29466)
# T3 construct: beginning with amino acid 120; Based upon a molecular weight analysis, the approximate C-terminus of mature IL-1β pro is about amino acid 297; endogenous in cells; host or cells: THP-1 cells (ATCC), stimulated, lysed, six-step chromatography
# T3 sequence (P29466 120-297): T1 sequence (P29466 120-297)
# T3 sequence (P29466 317-404): T1 sequence (P29466 317-404)
# T4: Peptide 10, Ac-Tyr-Val-His-Asp-Ala-Pro-Val-Arg-NH2 (human)
# T4 sequence (peptide, N-terminal acetyl (Ac-); C-terminal amide (-NH2)): YVHDAPVR
# B1: purified human IL-1β pro enzyme (interleukin 1β protease), purified from THP-1 cells (enzyme)
# chain: T1 sequence (P29466 120-297)
# Key:
# [1] = biological target: T1, IL-1β pro; assay: Inhibition of IL-1β pro catalyzed degradation of preIL-1β, in vitro assay with Western blot; type: biochemical
# Method: Products were subjected to SDS-PAGE, transferred to nitrocellulose, and probed with an antibody raised against the COOH terminus of mature IL-1β. Lane 3, preIL-1β incubated with 25 μM of inhibitor; lane 4, preIL-1β incubated with 10 μM of inhibitor; lane 5, preIL-1β incubated with 5 μM inhibitor, lane 6, preIL-1β incubated with 1 μM inhibitor.
# Boc-Asp-CH2F was tested for its ability to inhibit IL-1β pro catalyzed degradation of preIL-1β using an in vitro assay method. Black, et al., J. Biol. Chem., 263(19): 9437 (1988). Boc-Asp-CH2F was prepared in accordance with the method of example of 1A.
# 5 μl of preIL-1β (about 50 μg/ml in PBS) was mixed with 10 μl of purified IL-1β pro (15–75 μg/ml in PBS) and incubated at 37° C. for 30 minutes. The incubation was terminated by placing the samples on Dry Ice or by the addition of SDS sample buffer. PMSF was then added to a concentration of 1 mM, and the samples were dialyzed against water. After dialysis, the samples were concentrated to dryness in a Speed-Vac concentrator and dissolved in SDS sample buffer.
# SDS-PAGE was carried out with 12% polyacrylamide gels. The gels were placed in transfer buffer (0.192 M glycine. 0.025 M Tris-HCl (pH 8.3), 20% v/v methanol), and protein was then electrophoresed onto nitrocellulos (Sartorius) in a Hoeffer transfer apparatus (1 h at maximum voltage). […]
# [2] = biological target: T2, protease that generates mature IL-1β from the precursor polypeptide; settings: Black et al., FEBS Lett., 247:386–90 (1989); cited from earlier work
# [3] = biological target: T3, purified human IL-1β pro enzyme; assay: Cleavage of synthetic peptide substrates by purified human IL-1β pro enzyme (RP-HPLC); type: biochemical; design: key to Reactivity Relative To Peptide 1: reactivity relative to peptide Ala112–Ser121 of precursor IL-1β; settings: for ability of IL-1β pro to cleave the substrate peptide (in words): Tables 1 and 2
# Method: This example illustrates the range of substrate specificity of purified human IL-1β pro enzyme to cleave a group of amino acid sequences. A variety of peptide substrates were prepared featuring changes in individual amino acids in the region corresponding to the cleavage site in human precursor IL-1β (His 115 to Pro 118). The reactivity of the peptide substrates was expressed relative to the peptide corresponding to Ala 112 to Ser 121 of the precursor IL-1β sequence.
# Peptide solutions of standard concentration were prepared by dissolving about 2–3 mg of peptide substrate in water, loading the solution onto a Waters Sep-Pak C18 cartridge and washing three times with 5 ml of water. The peptide substrates were eluted with acetonitrile and then evaporated to dryness. Each substrate was standardized to 1 mM by amino acid analysis prior to use.
# Purified human IL-1β pro enzyme (10 μl), peptide substrate in water (10 μl), and 10 mM Tris buffer, pH 8.0 containing 25% v/v glycerol (10 μl) were mixed and the mixtures were incubated at 37° C. for four hours. The reaction was quenched with by adding 1 M glycine/HCl buffer pH 2.0 (10 μl). The samples were then analyzed using RP-HPLC with a Vydac C18 column (0.46 cm×25 cm) and eluting with a linear gradient from 100% solvent A to 70% solvent A/30% solvent B over 30 minutes at a flow rate of 1 ml/min. The effluent was monitored at 280 nm absorbing product.
# This example illustrates the effect of substrate peptide length on the ability of human IL-1β pro enzyme to cleave peptide substrates. […] Five substrate peptides were made that correspond to the amino acid sequence of the IL-1β pro cleavage site of human precursor IL-1.
# [4] = biological target: Peptide 4, Ala-Tyr-Val-His-(D-Asp)-Ala-Pro-Val-Arg-Ser
# [5] = biological target: Peptide 3, Ala-Tyr-Val-His-Glu-Ala-Pro-Val-Arg-Ser
# [6] = biological target: Peptide 7, Ala-Tyr-Val-Phe-Asp-Ala-Pro-Val-Arg-Ser
# [7] = biological target: Peptide 6, Ala-Tyr-Val-His-Asp-Val-Pro-Val-Arg-Ser
# [8] = biological target: Peptide 5, Ala-Tyr-Val-His-Asp-Gly-Pro-Val-Arg-Ser
# [9] = biological target: Peptide 1, Ala-Tyr-Val-His-Asp-Ala-Pro-Val-Arg-Ser (human)
# [10] = biological target: Peptide 8, Ala-Tyr-Val-His-Asp-Ala-Ala-Val-Arg-Ser
# [11] = biological target: Peptide 2, Ala-Tyr-Val-His-Asn-Ala-Pro-Val-Arg-Ser
# [12] = biological target: T4, Peptide 10, Ac-Tyr-Val-His-Asp-Ala-Pro-Val-Arg-NH2 (human)
# [13] = biological target: Peptide 9, Glu-Ala-Tyr-Val-His-Asp-Ala-Pro (human)
# [14] = Table 1, changes at cleavage site, 37° C., four hours, extent of peptide cleavage by RP-HPLC peak area at 280 nm
# [15] = Table 2, effect of substrate peptide length, conducted as in Example 1
molecule,measurement,setting,value
CC(C)(C)OC(=O)N[C@@H](CC(=O)O)C(=O)CF [Boc-Asp-CH2F],inhibition of generation of mature IL-1β from preIL-1β,[1]; inhibitor concentration 1 μM,partially inhibits
same,inhibition of generation of mature IL-1β from preIL-1β,[1]; inhibitor concentration 5 μM,completely inhibits
CCN1C(=O)C=CC1=O [N-ethylmaleimide],inhibition of the protease (in words),[2],inhibited
O=C(O)CI [iodoacetate],inhibition of the protease (in words),[2],inhibited
"Ala-Tyr-Val-His-(D-Asp)-Ala-Pro-Val-Arg-Ser (Seq. I.D. No. 16) (Ac-AYVH[dD]APVRS-NH2) [Peptide 4, substrate peptide, Asp changed to D-aspartate]",Reactivity Relative To Peptide 1,[3]; [14],<0.01
same,ability of IL-1β pro to cleave the substrate peptide (in words),[3],profound effect on the ability of IL-1β pro to cleave the substrate
"Ala-Tyr-Val-His-Asn-Ala-Pro-Val-Arg-Ser (Seq. I.D. No. 14) (AYVHNAPVRS) [Peptide 2, substrate peptide, Asp changed to asparagine]",Reactivity Relative To Peptide 1,[3]; [14],<0.01
same,ability of IL-1β pro to cleave the substrate peptide (in words),[3],profound effect on the ability of IL-1β pro to cleave the substrate
"Ala-Tyr-Val-His-Asp-Ala-Ala-Val-Arg-Ser (Seq. I.D. No. 20) (AYVHDAAVRS) [Peptide 8, substrate peptide, P2′ proline changed to alanine]",Reactivity Relative To Peptide 1,[3]; [14],0.47
same,ability of IL-1β pro to cleave the substrate peptide (in words),[3],still cleaved by human IL-1β pro but only half as efficiently
"Ala-Tyr-Val-His-Asp-Gly-Pro-Val-Arg-Ser (Seq. I.D. No. 17) (AYVHDGPVRS) [Peptide 5, substrate peptide, P1′ alanine replaced with glycine]",times more reactive than peptide 1,[3],3.4 times
same,Reactivity Relative To Peptide 1,[3]; [14],3.40
"Ala-Tyr-Val-His-Asp-Val-Pro-Val-Arg-Ser (Seq. I.D. No. 18) (AYVHDVPVRS) [Peptide 6, substrate peptide, P1′ alanine changed to valine]",Reactivity Relative To Peptide 1,[3]; [14],<0.05
same,ability of IL-1β pro to cleave the substrate peptide (in words),[3],effectively prevents proteolytic cleavage
"Ala-Tyr-Val-His-Glu-Ala-Pro-Val-Arg-Ser (Seq. I.D. No. 15) (AYVHEAPVRS) [Peptide 3, substrate peptide, Asp changed to glutamic acid]",Reactivity Relative To Peptide 1,[3]; [14],<0.05
same,ability of IL-1β pro to cleave the substrate peptide (in words),[3],profound effect on the ability of IL-1β pro to cleave the substrate
Ala-Tyr-Val-Phe-Asp-Ala-Pro-Val-Arg-Ser (Seq. I.D. No. 19) (AYVFDAPVRS) [Peptide 7],Reactivity Relative To Peptide 1,[3]; [14],0.50
same,ability of IL-1β pro to cleave the substrate peptide (in words),[3],A similar result was obtained
"Glu-Ala-Tyr-Val-His-Asp-Ala-Pro- (Seq. I.D. No. 21) (EAYVHDAPVRSL) [Peptide 9, substrate peptide of the precursor IL-1β cleavage site]",Reactivity Relative To Peptide 1,[3]; [15],0.74
"His-Asp-Ala-Pro- (Seq. I.D. No. 24) (HDAP) [Peptide 12, four amino acid substrate peptide]",Reactivity Relative To Peptide 1,[3]; [15],Not cleaved
"Tyr-Val-His-Asp-Ala-Pro-Val-Arg- (Seq. I.D. No. 22) (Ac-YVHDAPVR-NH2) [Peptide 10, eight amino acid substrate peptide]",Reactivity Relative To Peptide 1,[3]; [15],2.40
same,ability of IL-1β pro to cleave the substrate peptide (in words),[3],cleaved most efficiently
"Val-His-Asp-Ala-Pro-Val- (Seq. I.D. No. 23) (VHDAPV) [Peptide 11, six amino acid substrate peptide]",Reactivity Relative To Peptide 1,[3]; [15],Not cleaved
B1,"Reactivity Relative To Peptide 1 (peptide cleavage, RP-HPLC) (relative to Peptide 1)",[4],< 0.01
same,"Reactivity Relative To Peptide 1 (peptide cleavage, RP-HPLC) (relative to Peptide 1)",[5],< 0.05
same,"Reactivity Relative To Peptide 1 (peptide cleavage, RP-HPLC) (relative to Peptide 1)",[6],0.5
same,"Reactivity Relative To Peptide 1 (peptide cleavage, RP-HPLC) (relative to Peptide 1)",[7],< 0.05
same,"Reactivity Relative To Peptide 1 (peptide cleavage, RP-HPLC) (relative to Peptide 1)",[8],3.4
same,"Reactivity Relative To Peptide 1 (peptide cleavage, RP-HPLC) (relative to Peptide 1)",[9],1
same,"Reactivity Relative To Peptide 1 (peptide cleavage, RP-HPLC) (relative to Peptide 1)",[10],0.47
same,"Reactivity Relative To Peptide 1 (peptide cleavage, RP-HPLC) (relative to Peptide 1)",[11],< 0.01
same,"Reactivity Relative To Peptide 1 (peptide cleavage, RP-HPLC) (relative to Peptide 1)",[12],2.4
same,"Reactivity Relative To Peptide 1 (peptide cleavage, RP-HPLC) (relative to Peptide 1)",[13],0.74
